Legend:
[1] = molecular target: cell surface IgG (sIgG) of the sIgG+ B-cell line SU-DHL-4 (human (endogenous in SU-DHL-4))
[2] = molecular target: cell surface IgG (sIgG) of the sIgG+ B-cell line SU-DHL-4 (human (endogenous in SU-DHL-4)); remark: listed apart in the source

For “IgAimG (SpA toxin 2): diphtheria toxin without its receptor binding domain, GGGS linker, SpA ZZ domain”, the viability of the sIgG+ B-cell line SU-DHL-4 after 3 days with the toxin (luminescent cell viability assay); toxic from 0.0001 μg/ml (% of cells killed) [1] was 99 and the viability of SU-DHL-4 after 3 days with 10 to 100 μg/ml IgAimG in the presence of human serum (luminescent cell viability assay) (% of cells killed) [2] was > 99.

Reference: article PMC12429969
